The values that follow are results of earlier work, collected in article PMC3020241.

This data set addresses arrestin-1 (dimer) (Mus musculus) (UniProt P20443).

For the substance arrestin-1 (from UniProt P20443), the Kd is 57.5 µM.

The Kd is the free concentration of one partner at which half of the binding sites on the other are occupied at equilibrium, for simple one-to-one binding.
